The source of these data is patent US20030157712A1, “Methods for determining cell responses through EphB receptors” (priority 1997, published 2003).

This assay deals with endogenous EphB1 receptor of P19 cells (teratocarcinoma-derived, pluripotent murine cells) (murine) (UniProt Q8CBF3). Put plainly: cell-based or functional assay.
endogenous EphB1 receptor of P19 cells (teratocarcinoma-derived, pluripotent murine cells) (murine), sequence (Q8CBF3 18-984): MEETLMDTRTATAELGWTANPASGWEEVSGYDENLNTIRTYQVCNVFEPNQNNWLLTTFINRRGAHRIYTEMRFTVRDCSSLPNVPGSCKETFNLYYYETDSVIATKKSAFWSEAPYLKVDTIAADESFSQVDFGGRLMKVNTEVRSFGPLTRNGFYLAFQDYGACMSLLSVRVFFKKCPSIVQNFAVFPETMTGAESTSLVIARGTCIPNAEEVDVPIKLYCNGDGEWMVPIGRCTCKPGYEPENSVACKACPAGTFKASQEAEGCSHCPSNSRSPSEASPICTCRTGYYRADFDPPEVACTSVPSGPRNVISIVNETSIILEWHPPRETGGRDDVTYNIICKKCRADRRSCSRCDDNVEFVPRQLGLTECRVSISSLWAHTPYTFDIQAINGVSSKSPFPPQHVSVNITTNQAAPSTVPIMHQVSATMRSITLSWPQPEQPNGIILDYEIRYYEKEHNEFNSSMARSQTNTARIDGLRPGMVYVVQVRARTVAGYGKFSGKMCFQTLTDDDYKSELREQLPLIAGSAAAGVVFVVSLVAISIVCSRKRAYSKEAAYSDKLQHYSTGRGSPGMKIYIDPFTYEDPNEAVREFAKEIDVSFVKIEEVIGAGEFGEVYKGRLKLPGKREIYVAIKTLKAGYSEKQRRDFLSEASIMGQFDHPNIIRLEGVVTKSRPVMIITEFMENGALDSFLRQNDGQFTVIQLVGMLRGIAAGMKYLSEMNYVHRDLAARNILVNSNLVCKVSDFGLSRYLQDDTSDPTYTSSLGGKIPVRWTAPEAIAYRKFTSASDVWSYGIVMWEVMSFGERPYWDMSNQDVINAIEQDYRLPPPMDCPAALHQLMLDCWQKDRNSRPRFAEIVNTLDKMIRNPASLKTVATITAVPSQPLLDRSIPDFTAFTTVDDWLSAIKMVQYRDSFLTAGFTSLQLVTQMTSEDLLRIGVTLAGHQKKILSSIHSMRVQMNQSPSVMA

In the case of “preclustered multimeric ephrin-B1/Fc (ephrin-B1/Fc + anti-Fc) (from UniProt P98172 28-237; P01857 99-330) (Fc fusion)”, the % attached P19 cells in wells preadsorbed with ligand and fibronectin was found to be 60%.
